T1: laminin peptide LAMA5_(3417–3436) (Homo sapiens (Human), UniProt O15230)
T1 chain: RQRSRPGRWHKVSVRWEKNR

T2: laminin peptide LAMA5_(3539–3550) (Homo sapiens (Human), UniProt O15230)
T2 chain: TLPDVGLELEVR

T3: laminin peptide LAMA5_(3300–3330) (Homo sapiens (Human), UniProt O15230)
T3 chain: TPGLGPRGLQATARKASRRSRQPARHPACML

T4: laminin peptide LAMA4_(1408–1434) (Homo sapiens (Human), UniProt Q16363)
T4 chain: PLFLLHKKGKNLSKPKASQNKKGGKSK

T5: laminin peptide LAMA4_(1521–1543) (Homo sapiens (Human), UniProt Q16363)
T5 chain: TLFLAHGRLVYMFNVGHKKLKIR

T6: laminin peptide LAMA3_(3043–3067) (Homo sapiens (Human), UniProt Q16787)
T6 chain: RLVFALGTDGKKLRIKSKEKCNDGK

B1: recombinant human syndecan-1 (protein)
chain: QIVATNLPPEDQDGSGDDSDNFSGSGAGALQDITLSQQTPSTWKDTQLLTAIPTSPEPTGLEATAASTSTLPAGEGPKEGEAVVLPEVEPGLTAREQEATPRPRETTQLPTTHLASTTTATTAQEPATSHPHRDMQPGHHETSTPAGPSQADLHTPHTEDGGPSATERAAEDGASSQLPAAEGSGEQDFTFETSGENTAVVAVEPDRRNQSPVDQGATGASQGLLDRKEVLG
B2: recombinant human syndecan-4 (protein)
chain: ESIRETEVIDPQDLLEGRYFSGALPDDEDVVGPGQESDDFELSGSGDLDDLEDSMIGPEVVHPLVPLDNHIPERAGSGSQVPTEPKKLEENEVIPKRISPVEESEDVSNKVSMSSTVQGSNIFERTE
B3: recombinant human syndecan-2 (protein)
chain: ESRAELTSDKDMYLDNSSIEEASGVYPIDDDDYASASGSGADEDVESPELTTSRPLPKILLTSAAPKVETTTLNIQNKIPAQTKSPEETDKEKVHLSDSERKMDPAEEDTNVYTEKHSDSLFKRTE

The first experiment addresses T1, laminin peptide LAMA5_(3417–3436). In words: ELISA. In general terms: In an ELISA, binding on a coated surface is turned into a signal by an enzyme label.
In the case of B1, the binding result is “binds”.

With B2, the binding result is given as “binds”.

Turning to B3, the binding result is reported as “binds”.

For the next experiment, the target named is T2, laminin peptide LAMA5_(3539–3550). Briefly: ELISA.
As for B1, the binding result was “no binding”.

Regarding B2, the binding result was “no binding”.

Regarding B3, the binding result is recorded as “no binding”.

The next experiment deals with T3, laminin peptide LAMA5_(3300–3330). Briefly: ELISA.
For the molecule B1, the binding result was “binds”.

B2: the binding result is “binds”.

As for B3, the binding result is reported as “binds”.

A further experiment concerns the target T4, laminin peptide LAMA4_(1408–1434). Briefly: ELISA.
Take B1: the binding result was “binds”.

Turning to B2, the binding result is recorded as “binds”.

Take B3: the binding result was “binds”.

Another experiment concerns the target T5, laminin peptide LAMA4_(1521–1543). Briefly: ELISA.
For B1, the binding result is given as “binds”.

Take B2: the binding result is “binds”.

On to B3, for which the binding result was “binds”.

A further experiment addresses T6, laminin peptide LAMA3_(3043–3067). In words: ELISA.
Turning to B1, the binding result is recorded as “binds”.

B2: the binding result is listed as “binds”.

As for B3, the binding result is on record as “binds”.
